B1: recombinant B56α protein (natural protein)
chain: not shown

Tests used:
recombinant B56α protein = biological target: B1; assay: SPR
[1] = biological target: purified recombinant AnkB, wild type (SPR) (UniProt Q01484-2 1-1872); assay: SPR

recombinant B56α protein, sequence (Q15172 whole entry): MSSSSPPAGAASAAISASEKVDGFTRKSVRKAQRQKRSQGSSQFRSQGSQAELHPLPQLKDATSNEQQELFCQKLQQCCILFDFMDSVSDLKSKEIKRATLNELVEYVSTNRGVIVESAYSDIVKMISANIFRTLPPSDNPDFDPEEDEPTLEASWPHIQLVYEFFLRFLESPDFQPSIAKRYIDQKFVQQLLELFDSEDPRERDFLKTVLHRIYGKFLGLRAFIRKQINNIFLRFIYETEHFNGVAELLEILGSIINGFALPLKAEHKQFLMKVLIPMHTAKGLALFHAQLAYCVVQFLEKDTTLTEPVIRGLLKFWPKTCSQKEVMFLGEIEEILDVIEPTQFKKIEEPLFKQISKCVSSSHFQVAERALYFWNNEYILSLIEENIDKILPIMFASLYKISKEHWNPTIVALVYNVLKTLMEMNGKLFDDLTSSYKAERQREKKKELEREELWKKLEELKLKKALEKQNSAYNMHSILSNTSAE

Kd (recombinant B56α protein)	Kd [1]	Binder
22.2 ± 6.42 µM	–	purified recombinant mutant AnkB (p.Q1283H) (SPR) (natural protein) MMNEDAAQKSDSGEKFNGSSQRRKRPKKSDSNASFLRAARAGNLDKVVEYLKGGIDINTCNQNGLNALHLAAKEGHVGLVQELLGRGSSVDSATKKGNTALHIASLAGQAEVVKVLVKEGANINAQSQNGFTPLYMAAQENHIDVVKYLLENGANQSTATEDGFTPLAVALQQGHNQAVAILLENDTKGKVRLPALHIAARKDDTKSAALLLQNDHNADVQSKMMVNRTTESGFTPLHIAAHYGNVNVATLLLNRGAAVDFTARNGITPLHVASKRGNTNMVKLLLDRGGQIDAKTRDGLTPLHCAARSGHDQVVELLLERGAPLLARTKNGLSPLHMAAQGDHVECVKHLLQHKAPVDDVTLDYLTALHVAAHCGHYRVTKLLLDKRANPNARALNGFTPLHIACKKNRIKVMELLVKYGASIQAITESGLTPIHVAAFMGHLNIVLLLLQNGASPDVTNIRGETALHMAARAGQVEVVRCLLRNGALVDARAREEQTPLHIASRLGKTEIVQLLLQHMAHPDAATTNGYTPLHISAREGQVDVASVLLEAGAAHSLATKKGFTPLHVAAKYGSLDVAKLLLQRRAAADSAGKNGLTPLHVAAHYDNQKVALLLLEKGASPHATAKNGYTPLHIAAKKNQMQIASTLLNYGAETNIVTKQGVTPLHLASQEGHTDMVTLLLDKGANIHMSTKSGLTSLHLAAQEDKVNVADILTKHGADQDAHTKLGYTPLIVACHYGNVKMVNFLLKQGANVNAKTKNGYTPLHQAAQQGHTHIINVLLQHGAKPNATTANGNTALAIAKRLGYISVVDTLKVVTEEVTTTTTTITEKHKLNVPETMTEVLDVSDEEGDDTMTGDGGEYLRPEDLKELGDDSLPSSQFLDGMNYLRYSLEGGRSDSLRSFSSDRSHTLSHASYLRDSAVMDDSVVIPSHQVSTLAKEAERNSYRLSWGTENLDNVALSSSPIHSGFLVSFMVDARGGAMRGCRHNGLRIIIPPRKCTAPTRVTCRLVKRHRLATMPPMVEGEGLASRLIEVGPSGAQFLGPVIVEIPHFAALRGKERELVVLRSENGDSWKEHFCDYTEDELNEILNGMDEVLDSPEDLEKKRICRIITRDFPQYFAVVSRIKQDSNLIGPEGGVLSSTVVPQVQAVFPEGALTKRIRVGLQAQPMHSELVKKILGNKATFSPIVTLEPRRRKFHKPITMTIPVPKASSDVMLNGFGGDAPTLRLLCSITGGTTPAQWEDITGTTPLTFVNECVSFTTNVSARFWLIDCRQIQESVTFASHVYREIICVPYMAKFVVFAKSHDPIEARLRCFCMTDDKVDKTLEQQENFAEVARSRDVEVLEGKPIYVDCFGNLVPLTKSGQHHIFSFFAFKENRLPLFVKVRDTTQEPCGRLSFMKEPKSTRGLVHQAICNLNITLPIYTKESESDQEQEEEIDMTSEKNPQDEQERIEERLAYIADHLGFSWTELARELDFTEEQIHQIRIENPNSLQDQSHALLKYWLERDGKHATDTNLVECLTKINRMDIVHLMETNTEPLQERISHSYAEIEQTITLDHSEGFSVLQEELCTAQHKQKEEQAVSKESETCDHPPIVSEEDISVGYSTFQDGVPKTEGDSSATALFPQTHKEQVQQDFSGKMQDLPEESSLEYQQEYFVTTPGTETSETQKAMIVPSSPSKTPEEVSTPAEEEKLYLQTPTSSERGGSPIIQEPEEPSEHREESSPRKTSLVIVESADNQPETCERLDEDAAFEKGDDMPEIPPETVTEEEYIDEHGHTVVKKVTRKIIRRYVSSEGTEKEEIMVQGMPQEPVNIEEGDGYSKVIKRVVLKSDTEQSEDNNE
–	1.64 ± 0.05 µM	B1
